{"source": "paper PMC4851294", "about": "(PLoS ONE, 2016)", "key": {"[1]": {"target": "T1, 3-deoxy-D-arabino-heptulosonate 7-phosphate synthase (MtuDAH7PS) (Mycobacterium tuberculosis, UniProt O53512)", "T1 construct": "gene aroG; chain length 464 residues, homotetramer", "T1 sequence (O53512 whole entry)": "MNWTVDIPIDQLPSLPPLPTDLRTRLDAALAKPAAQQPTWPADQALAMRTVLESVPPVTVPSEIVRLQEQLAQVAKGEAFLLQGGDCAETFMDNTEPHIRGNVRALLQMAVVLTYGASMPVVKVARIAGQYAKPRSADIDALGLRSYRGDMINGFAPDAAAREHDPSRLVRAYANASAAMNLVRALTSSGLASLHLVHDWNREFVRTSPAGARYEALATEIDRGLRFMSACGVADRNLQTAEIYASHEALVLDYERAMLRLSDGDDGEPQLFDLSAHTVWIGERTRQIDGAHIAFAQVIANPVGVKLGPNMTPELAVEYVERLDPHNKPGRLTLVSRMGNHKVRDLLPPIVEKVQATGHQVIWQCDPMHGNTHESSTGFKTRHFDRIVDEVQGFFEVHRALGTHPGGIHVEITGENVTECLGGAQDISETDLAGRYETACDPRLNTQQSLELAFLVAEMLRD", "assay": "X-ray crystal structure (with D/L-Trp)", "format": "binding"}, "[2]": {"tested_on": "C=C(OP(=O)(O)O)C(=O)O", "assay": "purified protein"}}, "data": [{"compound": "N[C@@H](Cc1ccccc1)C(=O)O", "note": "[L-Phe]", "values": [{"measurement": "X-ray crystal structure (with D/L-Trp)", "setting": "[1]", "value": "The Phe site in the structure obtained from these soaking conditions is occupied by L-Phe"}]}, {"compound": "3-deoxy-D-arabino-heptulosonate 7-phosphate synthase (MtuDAH7PS) (Mycobacterium tuberculosis H37Rv)", "values": [{"measurement": "Km", "setting": "[2]", "value": "37 ± 4", "unit": "µM"}, {"measurement": "kcat", "setting": "[2]", "value": "4.7 ± 0.1", "unit": "s⁻¹"}, {"measurement": "kcat/Km", "setting": "[2]", "value": "130000 ± 20000", "unit": "M⁻¹ s⁻¹"}]}]}
